Common to all, as to assay: EMSA
A general note: Mobility shift assays separate free from complexed probe on a gel.

For series [1], the target named is NF90ΔC381 (DZF);NF45ΔN28 (DZF) (mouse;mouse, UniProt Q9Z1X4;Q9CXY6 1-380;29-390, |).
The target in the next series is T1, NF90 dsRBDs (mouse, UniProt Q9Z1X4 380-590).
T1 sequence: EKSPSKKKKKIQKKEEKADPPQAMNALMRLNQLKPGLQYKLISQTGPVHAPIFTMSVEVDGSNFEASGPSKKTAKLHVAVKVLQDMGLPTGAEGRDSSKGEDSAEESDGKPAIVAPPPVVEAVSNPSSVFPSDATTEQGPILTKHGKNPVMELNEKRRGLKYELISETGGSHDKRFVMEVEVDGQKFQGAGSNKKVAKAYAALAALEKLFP

Series [2] addresses NF90ΔC591 (DZF + both dsRBDs);NF45 (partner in long complex) (mouse;mouse, UniProt Q9Z1X4;Q9CXY6 1-590;29-390, |).

NF90ΔC591 (DZF + both dsRBDs);NF45 (partner in long complex), sequence (Q9CXY6 29-390, stated change not applied, one chain of several): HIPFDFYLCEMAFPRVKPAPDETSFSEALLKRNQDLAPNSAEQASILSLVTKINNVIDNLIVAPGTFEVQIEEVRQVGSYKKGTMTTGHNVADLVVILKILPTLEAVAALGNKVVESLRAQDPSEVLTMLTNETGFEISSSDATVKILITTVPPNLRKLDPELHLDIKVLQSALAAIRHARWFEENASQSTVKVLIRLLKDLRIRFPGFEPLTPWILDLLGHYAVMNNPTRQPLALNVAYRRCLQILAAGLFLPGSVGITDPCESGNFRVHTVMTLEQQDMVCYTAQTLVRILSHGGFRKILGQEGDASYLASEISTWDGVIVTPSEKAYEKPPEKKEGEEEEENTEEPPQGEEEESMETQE

B1: ss17-A10 (ssRNA)
RNA: CCCCACCACCAUCACUUAAAAAAAAAA
Turning to B1, in series [1], the binding result is reported as “no binding”.

B2: ss17-A10/Css17-U10 dsRNA (dsRNA)
RNA 1: CCCCACCACCAUCACUUAAAAAAAAAA
RNA 2: UUUUUUUUUUAAGUGAUGGUGGUGGGG
As for B2, the binding result is “no binding” in series [1], “binds” with NF90 dsRBDs and “binds” in series [2].

The record behind these values is PMC3467086.
